The term stoichiometry N denotes the number of molecules, sites or subunits per partner or assembly.

Experimental findings from publication doi:10.1101/2024.09.05.611543 (bioRxiv, 2024) are described below.

First the molecules themselves.
B1: CaKip3 MD-PT (motor domain, neck linker, neck extension and proximal tail domain; residues 1-707) (domain or fragment, Candida albicans, UniProt A0A1D8PKA4 1-707, looked up)
chain: MSYPNSLGSPATVTSTSVPTAKQSSISVAVRVRPFTEAESNRLVKIDNDDVFLGDGCLTSDNNNNNNNSNSNGNGNGNGSSAANSSGASTSRRAIFNTLGGLRKIINVVDDRMLIFDPPETNPLTKMQRNAFPNSFKGSRIREHRFVFDRLFDEDCTQDQVYRNTTQPLLDSVLDGYNATVFAYGATGCGKTHTISGTPEDPGVIFLTMKELYNRIEELKDTKIIDISLSYLEIYNETIRDLLNPMTQCKNLVIREDANNKISVSNLSRHRPNSVEEVMQLILEGNKNRTCSPTEANATSSRSHAVLQINVIQKDRTGDITEEHTFATLSIIDLAGSERAAATKNRGARLNEGANINKSLLALGNCINALCDPRRRNHVPYRDSKLTRLLKFSLGGNCKTVMIVCVSPSSQHYDETLNTLKYADRAKEIKTKLIRNQHNLDRHVGSYLKMITEQKQEIEELRARESKMVESTINKRKDLESKVFKILFESLESTRKAIAKQNQEKWKKYFILAKRKLLLSQKIETELVLEQRDDIDINSLSIASGNESESVFKIYDLCEQLISKIEYQLPQLESQYSQPTDLDYILEDSAMQTLKRLQDEEGWTEHHSAIYRQSIQSMKREVHTDLLLYSSILYDNLIHDLSIFFYIPREIGNFINNISNPTSLNEANQELLYNMTLGLENLLNGEFDSAMEHYAMDYMKNKVESEN
B2: CaKip3 PT (proximal tail only; residues 475-707), His6-MBP fusion (domain or fragment, Candida albicans, UniProt A0A1D8PKA4 475-707, looked up)
chain: KRKDLESKVFKILFESLESTRKAIAKQNQEKWKKYFILAKRKLLLSQKIETELVLEQRDDIDINSLSIASGNESESVFKIYDLCEQLISKIEYQLPQLESQYSQPTDLDYILEDSAMQTLKRLQDEEGWTEHHSAIYRQSIQSMKREVHTDLLLYSSILYDNLIHDLSIFFYIPREIGNFINNISNPTSLNEANQELLYNMTLGLENLLNGEFDSAMEHYAMDYMKNKVESEN
B3: CaKip3 NE-PT (neck extension and proximal tail; residues 444-707), His6-MBP fusion (domain or fragment, Candida albicans, UniProt A0A1D8PKA4 444-707, looked up)
chain: VGSYLKMITEQKQEIEELRARESKMVESTINKRKDLESKVFKILFESLESTRKAIAKQNQEKWKKYFILAKRKLLLSQKIETELVLEQRDDIDINSLSIASGNESESVFKIYDLCEQLISKIEYQLPQLESQYSQPTDLDYILEDSAMQTLKRLQDEEGWTEHHSAIYRQSIQSMKREVHTDLLLYSSILYDNLIHDLSIFFYIPREIGNFINNISNPTSLNEANQELLYNMTLGLENLLNGEFDSAMEHYAMDYMKNKVESEN

The data set deals with the molecule itself. Kind of data set: SEC-MALS. On the technique in general: In gel filtration, larger molecules generally elute earlier.
On to B1, for which the “stoichiometry N” value was 2.

With B2, the “stoichiometry N” value turned out to be 2.

For the protein B3, the “stoichiometry N” value is 2.
